Article PMC9852587

Molecular target: His-SYMREM1 (Medicago truncatula)
Test: SEC; analytical gel filtration of fresh recombinant His-SYMREM1, calibrated with standard proteins; apparent molecular weight compared with the calculated size of a dimer

stoichiometry N: 2
Substance: His-SYMREM1 (natural protein)
